The record followed here is paper PMC5469197, “ANGUSTIFOLIA, a Plant Homolog of CtBP/BARS Localizes to Stress Granules and Regulates Their Formation” (Frontiers in Plant Science, 2017).

Assay in all cases: co-IP; LUMIER in HEK293TN cells: Prot-A fusion co-transfected with Renilla luciferase fusion (AN always the luciferase fusion with the interactors); luciferase activity before (input) and after pulldown; percentage pulldown = pulldown/input x 100; empty vectors as negative control; positive if more than two times the background
Holding throughout (settings): partners not purified

The target in assay [1] is T1, EUKARYOTIC INITIATION FACTOR 4E1 (EIF4E1), Prot-A fusion (Arabidopsis thaliana, UniProt O23252 1-235).
T1 construct: Eukaryotic initiation factor 4E1, Arabidopsis thaliana, AT4G18040; CDS amplified from Col-0 cDNA; source: HEK293TN cells, transfected; not shown: Protein A (Staphylococcus aureus), N-terminal, kept
T1 sequence (looked up): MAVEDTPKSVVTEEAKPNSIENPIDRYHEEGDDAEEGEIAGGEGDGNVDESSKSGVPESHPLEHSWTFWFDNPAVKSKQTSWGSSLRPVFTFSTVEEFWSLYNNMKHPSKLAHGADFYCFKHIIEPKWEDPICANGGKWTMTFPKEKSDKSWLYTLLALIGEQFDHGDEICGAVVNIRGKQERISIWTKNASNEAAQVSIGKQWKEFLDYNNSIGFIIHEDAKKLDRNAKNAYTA

Assay [2] deals with T2, ARGONAUTE1 (AGO1), Prot-A fusion (Arabidopsis thaliana, UniProt O04379 1-1048).
T2 construct: ARGONAUTE1, Arabidopsis thaliana, AT1G48410; CDS amplified from Col-0 cDNA; source: HEK293TN cells, transfected; not shown: Protein A (Staphylococcus aureus), N-terminal, kept
T2 sequence (looked up): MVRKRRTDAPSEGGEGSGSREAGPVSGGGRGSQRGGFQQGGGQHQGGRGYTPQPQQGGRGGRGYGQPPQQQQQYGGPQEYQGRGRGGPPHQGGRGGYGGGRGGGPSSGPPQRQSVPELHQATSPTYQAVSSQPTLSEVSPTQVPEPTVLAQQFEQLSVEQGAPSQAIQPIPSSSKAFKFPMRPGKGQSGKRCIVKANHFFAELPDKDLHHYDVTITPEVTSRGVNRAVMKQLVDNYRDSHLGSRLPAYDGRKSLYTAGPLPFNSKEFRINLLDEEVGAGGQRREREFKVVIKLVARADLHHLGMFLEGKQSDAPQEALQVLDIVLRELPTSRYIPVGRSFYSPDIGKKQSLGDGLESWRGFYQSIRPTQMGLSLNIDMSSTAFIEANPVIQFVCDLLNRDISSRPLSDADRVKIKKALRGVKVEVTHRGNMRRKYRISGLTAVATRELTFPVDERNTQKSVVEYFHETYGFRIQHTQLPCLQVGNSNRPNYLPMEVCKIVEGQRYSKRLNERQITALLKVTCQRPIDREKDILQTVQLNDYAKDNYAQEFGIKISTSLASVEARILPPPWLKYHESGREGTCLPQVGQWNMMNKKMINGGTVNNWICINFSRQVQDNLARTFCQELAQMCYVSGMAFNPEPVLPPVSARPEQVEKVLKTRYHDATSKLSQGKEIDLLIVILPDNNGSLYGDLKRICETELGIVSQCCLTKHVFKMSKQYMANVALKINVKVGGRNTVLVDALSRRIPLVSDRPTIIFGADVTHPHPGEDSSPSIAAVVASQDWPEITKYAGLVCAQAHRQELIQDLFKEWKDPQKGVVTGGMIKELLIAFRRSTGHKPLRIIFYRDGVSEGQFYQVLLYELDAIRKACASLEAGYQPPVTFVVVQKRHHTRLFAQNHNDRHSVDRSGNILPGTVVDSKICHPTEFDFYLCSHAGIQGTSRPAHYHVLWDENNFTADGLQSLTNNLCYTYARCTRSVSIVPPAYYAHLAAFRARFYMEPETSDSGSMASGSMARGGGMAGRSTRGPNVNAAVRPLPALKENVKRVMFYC

In assay [3] the target is T3, …ONALLY CONTROLLED TUMOR PROTEIN (TCTP), Prot-A fusion (Arabidopsis thaliana, UniProt P31265 1-168).
T3 construct: Translationally controlled tumor protein, Arabidopsis thaliana, AT3G16640; CDS amplified from Col-0 cDNA; source: HEK293TN cells, transfected; not shown: Protein A (Staphylococcus aureus), N-terminal, kept
T3 sequence (looked up): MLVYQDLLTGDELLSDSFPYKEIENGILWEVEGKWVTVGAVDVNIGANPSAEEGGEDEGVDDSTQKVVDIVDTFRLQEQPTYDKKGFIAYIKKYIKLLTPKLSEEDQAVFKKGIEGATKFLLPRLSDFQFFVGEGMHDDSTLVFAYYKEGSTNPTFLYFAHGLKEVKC

In assay [4] the target is T4, EIF (ISO) 4E, Prot-A fusion (Arabidopsis thaliana, UniProt O04663 1-198).
T4 construct: EIF(iso)4E, Arabidopsis thaliana, AT5G35620; CDS amplified from Col-0 cDNA; source: HEK293TN cells, transfected; not shown: Protein A (Staphylococcus aureus), N-terminal, kept
T4 sequence (looked up): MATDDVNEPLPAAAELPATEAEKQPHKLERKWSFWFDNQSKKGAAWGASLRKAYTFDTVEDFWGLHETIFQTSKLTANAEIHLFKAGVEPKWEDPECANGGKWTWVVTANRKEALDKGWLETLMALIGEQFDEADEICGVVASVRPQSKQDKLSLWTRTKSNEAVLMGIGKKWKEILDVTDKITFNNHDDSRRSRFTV

B1: AN, Renilla luciferase fusion (LUMIER) (natural protein, Arabidopsis thaliana, UniProt O23702 1-636, looked up)
chain: MSKIRSSATMPHRDQPSPASPHVVTLNCIEDCALEQDSLAGVAGVEYVPLSRIADGKIESATAVLLHSLAYLPRAAQRRLRPHQLILCLGSADRAVDSTLAADLGLRLVHVDTSRAEEIADTVMALILGLLRRTHLLSRHALSASGWLGSLQPLCRGMRRCRGMVLGIVGRSVSARYLASRSLAFKMSVLYFDVPEGDEERIRPSRFPRAARRMDTLNDLLAASDVISLHCALTNDTVQILNAECLQHIKPGAFLVNTGSCQLLDDCAVKQLLIDGTIAGCALDGAEGPQWMEAWVKEMPNVLILPRSADYSEEVWMEIREKAISILHSFFLDGVIPSNTVSDEEVEESEASEEEEQSPSKHEKLAIVESTSRQQGESTLTSTEIVRREASELKESLSPGQQHVSQNTAVKPEGRRSRSGKKAKKRHSQQKYMQKTDGSSGLNEESTSRRDDIAMSDTEEVLSSSSRCASPEDSRSRKTPLEVMQESSPNQLVMSSKKFIGKSSELLKDGYVVALYAKDLSGLHVSRQRTKNGGWFLDTLSNVSKRDPAAQFIIAYRNKDTVGLRSFAAGGKLLQINRRMEFVFASHSFDVWESWSLEGSLDECRLVNCRNSSAVLDVRVEILAMVGDDGITRWID
notes: ANGUSTIFOLIA (AN), Arabidopsis thaliana, AT1G01510; CDS amplified from Col-0 cDNA; in the dimerisation test the second copy must have been the N-terminal protein A fusion (surmised from the LUMIER format); also called wild-type AN; source: HEK293TN cells, transfected; not shown: Renilla reniformis luciferase, N-terminal, kept
Take B1: the “fold change from background” value in assay [1] was 2.83 fold; in assay [2], 5.02 fold; in assay [3], 3.12 fold; in assay [4] it was 4.09 fold. Further, the percentage pulldown came to 0.27% in assay [1], 0.47% in assay [2], 0.28% in assay [3] and 0.39% in assay [4].
